Test results taken from publication PMC8419096.

Target: HIV-1 precursor Gag (PrGag) protein (HIV-1) (UniProt P04591)
Assay: dual fluorescence microscopy of virus-like particles

“EGFP-Vpr (from UniProt P12520 1-96) (natural protein)” was tested, and the percent of CA positive particles that were also GFP positive was 39.1%.

B1: VHH52-GFP (control nanobody elicited against the influenza nucleoprotein, fused to GFP) (VHH)
VHH: QVQLQESGGGLVQAGGSLRLTCALSERTSTSYAQGWFRQPPGKEREFVASLRTHDGNTHYTDSVKGRFTISRDNAENTLYLQMNSLKTEDTAVYYCAASLGYSGAYASGYDYWGQGTQVTVSS
Work on B1 yielded a percent of CA positive particles that were also GFP positive of 0.1%.
